Test results taken from US20230303681A1 (published 2023).
“And” between values parts separate entries of the source, which are not always exact repeats. Equal entries are not always repeated. Where two headings read alike, the source gives them in different places.

Columns and labels:
[1] = biological target: T1, human TMEM106B (human, UniProt Q9NUM4 2-274); test: FACS HEK+huTMEM, 0.01 ug/ml
T1 construct: Full-length, on transiently transfected HEK293 cells, or natively expressed on HeLa, U251 and A549 cells; also called huTMEM106B; huTMEM

[2] = biological target: T1, human TMEM106B; test: FACS U251;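 note: flow cytometry of cells exposed to antibody (purified at 10 µg/mL, or hybridoma supernatant) for 1 h on ice, with propidium iodide-positive dead cells gated out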
[3] = biological target: T2, GST-fusion human TMEM106B truncated (human); test: ELISA, supernatant 100-1000x
T2 construct: also called GST-TMEM106B-truncated protein; GST-TMEM106B (truncated)
Method: (§1) Briefly, 96-well polystyrene plates were coated with 1-10 µg/ml of recombinant GST-TMEM106B-truncated protein or GST (Pierce) in PBS either at 370 Cfor 1-4 hours or overnight at 4 °C. Coated plates were then blocked with 5% BSA for 1-hour, washed 3×150 µL in TBST (Tris-buffered saline + 0.1% Tween20), and then the antibodies were added at various dilutions (100-1000x) in PBS. After 1-hour incubation (room temperature, with shaking), the plates were washed 3x150 µL in TBST. […] After a final set of washes (3×150µL in TBST), 100 µL of peroxidase substrate was added for 1 minute; the reaction was then quenched with 2N sulfuric acid (100 µL).

[4] = biological target: T1, human TMEM106B; test: FACS, HEK293 transfectants;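 for fold over negative controls: hybridoma supernatants incubated 30 min on ice with human TMEM106B-expressing HEK293 cells, binding read as anti-mouse-APC median fluorescence on live cells, relative to secondary-antibody-only wells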;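 for fold-change over parental HEK293: flow cytometry binding of hybridoma supernatants to HEK293 cells transiently expressing human, cyno or mouse TMEM106B, read as anti-mouse-APC median fluorescence, live cells only, 30 min on ice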
Method: Initial screening of the anti-TMEM106B hybridomas was performed as follows.
For screening of the hybridoma cell culture supernatants, humanTMEM106B-transfected HEK293 cells were aliquoted in 96-well round bottom plates (2x10^5 cells per well) and incubated with 50 µL of hybridoma cell culture supernatant on ice for 30 minutes. […] Cell sorting was performed on a FACS Canto system (BD Biosciences) or iQue (Intellicyt), with sort gates drawn to exclude dead (i.e., propidium iodide-positive) cells. Median fluorescence intensity (MFI) of anti-mouse-APC MFI on TMEM106B+ HEK293 cells was calculated for each clone, and those displaying a signal of at least 2-fold over background compared to a secondary-antibody only well were taken forward for further analysis and characterization.

[5] = biological target: T1, human TMEM106B; test: FACS A549
[6] = biological target: T1, human TMEM106B; test: FACS HEK+huTMEM, 1.0 ug/ml
[7] = biological target: T1, human TMEM106B; test: FACS A549, 10 ug/ml
[8] = biological target: T1, human TMEM106B; test: FACS HEK+huTMEM, 10 ug/ml;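 note: purified mouse IgG antibodies at 10 µg/ml bound to HEK293 cells transiently expressing human TMEM106B, measured by flow cytometry as median fluorescence intensity of propidium iodide negative live cells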
Method: (§2) Purified anti-TMEM106B antibodies were evaluated for their binding affinity to various TMEM106B-expressing cell lines including HEK293 transiently transfected with human/cyno/mouse TMEM106B, as well as HeLa cells and A549 cells. Antibodies tested for this experiment were mouse IgGs purified from hybridoma supernatant. Affinity binding to cells was determined as follows. Briefly, 1x10^5 cells were aliquoted per well in 96-well round bottom plates and incubated with 50 µL of purified anti-TMEM106B antibody at various concentrations (10x dilutions starting at 10 µg/ml) in FACS buffer (PBS + 2% FBS + 1 mM EDTA). […] Sorting was performed on a iQue (Intellicyt), with sort gates drawn to exclude dead (propidium iodide +) cells. Binding data was analyzed using median fluorescent intensity (MFI) and graphed in Prism. Values presented are MFI.

[9] = biological target: T1, human TMEM106B; test: FACS A549, 1 ug/ml
Method: as §2

[10] = biological target: T3, GST (Pierce) (UniProt P08515 1-218 = GST, limits assumed); test: ELISA, coated GST;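 note: ELISA on plates coated with GST alone at 1-10 µg/ml, antibodies applied at 100-1000x dilution, bound antibody detected by peroxidase substrate colour after acid stop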
T3 construct: control for the GST part of the fusion protein; also called GST protein; Glutathione-S-transferase
Method: as §1

[11] = biological target: T1, human TMEM106B; test: FACS HEK+huTMEM, 0.1 ug/ml;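 note: flow cytometry binding of purified mouse IgG antibodies to HEK293 cells transiently expressing TMEM106B, read as median fluorescence intensity with propidium iodide positive dead cells gated out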
Method: as §2

[12] = biological target: T1, human TMEM106B; test: FACS HeLa;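 note: flow cytometry of cells incubated with hybridoma supernatant or purified antibody at 10 µg/ml for 1 h on ice, propidium iodide–positive dead cells gated out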
Method: All cells were cultured in either T75 or T150 flasks. […] The enzyme was quenched by addition of fresh media, and the cells were then distributed into 96-well plates for FACS analysis.
FACS analysis was performed as follows. Each cell type was aliquoted in 96-well round bottom plates (2x10^5 cells per well), washed once with FACS buffer (PBS + 2% FBS + 1 mM EDTA), and incubated with 50 µL of hybridoma supernatant or purified antibody (10 µg/ml in FACS buffer) on ice for 1 hour. […] Following this secondary incubation, the cells were again washed 2x with ice-cold FACS buffer and resuspended in a final volume of 50 µL of FACS buffer + 0.25 µl/well propidium iodide (Fisher Scientific # BDB556463). Analysis was performed on a FACSCanto system (BD Biosciences) or iQue (Intellicyt), with sort gates drawn to exclude dead (i.e., propidium iodide positive) cells.
Data is presented as mean fluorescence intensity (MFI).

[13] = biological target: T1, human TMEM106B; test: FACS, HEK293 transfectants; remark: listed apart in the source;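 for fold over negative controls: hybridoma supernatants incubated 30 min on ice with human TMEM106B-expressing HEK293 cells, binding read as anti-mouse-APC median fluorescence on live cells, relative to secondary-antibody-only wells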;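 for fold-change over parental HEK293: flow cytometry binding of hybridoma supernatants to HEK293 cells transiently expressing human, cyno or mouse TMEM106B, read as anti-mouse-APC median fluorescence, live cells only, 30 min on ice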
[14] = biological target: T4, cynomolgus (cyno) TMEM106B (cynomolgus, UniProt Q9NUM4 2-274 (human entry)); test: FACS, HEK293 transfectants;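 note: flow cytometry binding of hybridoma supernatants to HEK293 cells transiently expressing human, cyno or mouse TMEM106B, read as anti-mouse-APC median fluorescence, live cells only, 30 min on ice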
T4 construct: on transiently transfected HEK293 cells

[15] = biological target: T2, GST-fusion human TMEM106B truncated; test: array SPR, Ab immobilised;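 for koff: antibodies amine-coupled on an MX-96 chip, antigen flowed at 500 nM top concentration in 5-fold serial dilutions, GST alone run as nonspecific-binding control, duplicate measurements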;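 for kon: antibodies amine-coupled on an MX-96 chip, antigen flowed at 500 nM top concentration in 5-fold serial dilutions, GST alone run as nonspecific-binding control, duplicate measurements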
[16] = biological target: T5, mouse TMEM106B (mouse, UniProt Q80X71 2-275); test: FACS Neuro2a;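 note: flow cytometry of cells stained with antibody or hybridoma supernatant (purified antibody at 10 µg/ml) for 1 h on ice, propidium iodide–positive dead cells gated out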
T5 construct: on transiently transfected HEK293 cells, or natively expressed on mouse Neuro2a cells; also called moTMEM106B; murine TMEM106B

[17] = biological target: T2, GST-fusion human TMEM106B truncated; test: array SPR, Ab immobilised; remark: listed apart in the source;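 for koff: antibodies amine-coupled on an MX-96 chip, antigen flowed at 500 nM top concentration in 5-fold serial dilutions, GST alone run as nonspecific-binding control, duplicate measurements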;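 for kon: antibodies amine-coupled on an MX-96 chip, antigen flowed at 500 nM top concentration in 5-fold serial dilutions, GST alone run as nonspecific-binding control, duplicate measurements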
[18] = biological target: T5, mouse TMEM106B; test: FACS, HEK293 transfectants;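 note: flow cytometry binding of hybridoma supernatants to HEK293 cells transiently expressing human, cyno or mouse TMEM106B, read as anti-mouse-APC median fluorescence, live cells only, 30 min on ice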
[19] = biological target: T1, human TMEM106B; test: FACS titration on cells, apparent
Method: as §2

[20] = biological target: T2, GST-fusion human TMEM106B truncated; test: ELISA, supernatant
Method: as §1

B1: anti-TMEM106B antibody TM-4 (antibody, V domains shown)
VH: EVQVQQSGPVLVKPGASVKMSCKASGYTFTDYYMNWVKQSHGKNLEWIGVINPYNGGTSYHQKFKGKATLTVDKSSSTAYMELNSLTSEDSAVYYCARAATVVAGFDYWGQGTTLTVSS
VL: QAVVTQESALTTSPGETVTLTCRSSTGAVTTSNYANWVQEKPDHLFTGLIGGTNNRAPGVPARFSGSLIGDKAALTITGAQTEDEAIYFCVLWYSNHLVFGGGTKLTVL
For B1, the MFI [1] was 282, the MFI [2] was 349 and the binding result [3] was “no binding”. The “fold over negative controls” value [4] was > 2 fold, the MFI [5] was 916 and the MFI [6] was 415. It also gave an MFI [7] of 443, an MFI [8] of 846 and an MFI [9] of 373. For the same binder, the binding result [10] was “no binding”, the MFI [11] was 304 and the MFI [12] was 323. For the same binder, the “fold-change over parental HEK293” value [13] was 1.13 fold and the “fold-change over parental HEK293” value [14] was 2.08 fold.

B2: anti-TMEM106B antibody TM-2 (antibody, V domains shown)
VH: HIQLVQSGPELKKPGETVKISCKASGYTFTEYPMHWVKQAPGKGFRWMGMIYTNTGEPTYAAEFKGRFAFSLETSASTGYLQINNLKNEDSATYFCVTAGYWGQGTLVTVSA
VL: QIVLTQSPAILSASPGEKVTMTCRASSSVSYIHWFLQKPGSSPKPWIYATSNLASGVPFRFIGSGSGTSYSLTISGVEAEDSATYYCQQWSSNPSTFGAGTKLELK
B2 showed an MFI [1] of 1440, an MFI [2] of 1410 and a Kd [15] of ~1 nM. For the same binder, the “fold over negative controls” value [4] was > 2 fold, the MFI [5] was 1890 and the MFI [6] was 29300. The MFI [7] was 3360, the MFI [8] was 55500 and the MFI [9] was 1090. The MFI [16] was 2900, the binding result [10] was “no binding” and the MFI [11] was 4730. For the same binder, the MFI [12] was 2530, the Kd [17] was 0.9 nM and 1.2 nM and the koff [17] was 1.1e-05 s⁻¹ and 1e-05 s⁻¹. For the same binder, the kon [17] was 12000 M⁻¹ s⁻¹ and 8300 M⁻¹ s⁻¹, the “fold-change over parental HEK293” value [13] was 9.84 fold and the “fold-change over parental HEK293” value [18] was 17.5 fold. For the same binder, the “fold-change over parental HEK293” value [14] was 32.3 fold.

B3: anti-TMEM106B antibody TM-18 (antibody, V domains shown)
VH: EVRLQQSGPELVKPGASVKISCKTSGYTFTDYYMNWVKQSHGKSLEWIVNINPNNGDAFYNQKFKGKATLTVDKSSNTAYLDLRSLTSEDSAVYYCAREGQLRLRRVYAMDYWGQGTSVTVSS
VL: DIVLAQSPASLAVSLGQRATISCRASKSVSISVYTYVHWYQQKPGQPPKLLIYLASNLESGVPARFSGSGSGTDFTLNIHPVEEEDAATYYCQHSRELPYTFGGGTKLEIK
In the case of B3, the MFI [1] is reported as 1740, the MFI [2] is reported as 874 and the “fold over negative controls” value [4] is reported as > 2 fold. It also gave an MFI [5] of 1490, an MFI [6] of 67300 and an MFI [7] of 5190. The MFI [8] was 71700, the MFI [9] was 2620 and the MFI [16] was 1930. For the same binder, the binding result [10] was “no binding”, the Kd [19] was ~1 nM and the MFI [11] was 10600. The MFI [12] was 1920, the Kd [17] was 7.3 nM and 11 nM and the koff [17] was 7.2e-05 s⁻¹ and 9.4e-05 s⁻¹. For the same binder, the kon [17] was 9900 M⁻¹ s⁻¹ and 8500 M⁻¹ s⁻¹, the “fold-change over parental HEK293” value [13] was 18.8 fold and the “fold-change over parental HEK293” value [18] was 29 fold. The “fold-change over parental HEK293” value [14] was 38.8 fold.

B4: anti-TMEM106B antibody TM-1 (antibody, V domains shown)
VH: QVQLQQSGAELVRPGTSVKVSCKASGYAFTNYLIEWVKQRPGQGLEWIGVINPGSGGTKYNEKLKGKATLTADKSSSTAYMQLSSLTSVDSAVYFCARRGYTIYDFYAMDYWGQGTSVTVSS
VL: DVLMTQTPLSLPVSLGDHASISCRSSQSIVYNNGNTYLEWYLQKPGQSPKLLIYKVSNRFSGVPDRFSGSGSGTDFTLKISRVEAEDLGVYYCFQVSHVPFTFGSGTKLEIK
B4 was tested, and the MFI [1] was 655, the MFI [2] was 244 and the “fold over negative controls” value [4] was > 2 fold. The MFI [5] was 1460, the MFI [6] was 2010 and the MFI [7] was 409. It also gave an MFI [8] of 2380, an MFI [9] of 364 and an MFI [16] of 253. The binding result [10] was “no binding”, the Kd [19] was ~1 nM and the MFI [11] was 1330. The MFI [12] was 253, the Kd [17] was 14 nM and 13 nM and the koff [17] was 0.00057 s⁻¹ and 0.00069 s⁻¹. The kon [17] was 40000 M⁻¹ s⁻¹ and 52000 M⁻¹ s⁻¹, the “fold-change over parental HEK293” value [13] was 4.72 fold and the “fold-change over parental HEK293” value [18] was 4.61 fold. For the same binder, the “fold-change over parental HEK293” value [14] was 11.7 fold.

B5: anti-TMEM106B antibody TM-22 (antibody, V domains shown)
VH: QVQLQQSGPELVKPGASVKISCKASGYRFTSYYIHWVKQRPGQGLEWIGWIYPGNGITNYNEKFKGKATLTADTSSSTAYMQLSSLTSEDSAVYYCASPYYGIRNCYFDVWGTGTTVTVSS
VL: DVLMTQTPLSLPVSLGDHASISCRSGQSIVHSNGNTYLEWYLQKPGQSPKLLIYKVSNRFSGVPDRFSGSGSGTDFTLKISRVEAEDLGIYYCFQGSHVPWTFGGGTKLEIK
With B5 the MFI [1] was 500, the MFI [2] was 313 and the MFI [5] was 1570. For the same binder, the MFI [6] was 2100, the MFI [7] was 478 and the MFI [8] was 3580. The MFI [9] was 399, the MFI [16] was 400 and the binding result [10] was “no binding”. The binding result [20] was “binds”, the MFI [11] was 833 and the MFI [12] was 408.

B6: anti-TMEM106B antibody TM-19 (antibody, V domains shown)
VH: DVQLQQSGAELVRPGASVKLSCTASGFNIKDYYMYWVKQRPEQGLEWIGRIDPEDGDTENAPKFRGMATMTADTSSNTAYLQLNSLTSEDTAVYYCTTRIGNLYHVMDYWGHGTSVTVSS
VL: DVLMTQTPLSLPVSLGDQASISCRSSQSIVHSNGNTYLEWYLQKPGQAPKLLIDKVFNRFSGVPDRFSGSGSGTDFTLKISRVEAEDLGVYYCFQGSHVPFTFGSGTKLEIK
For B6, the MFI [1] was 3340, the MFI [2] was 878 and the “fold over negative controls” value [4] was > 2 fold. For the same binder, the MFI [5] was 1820, the MFI [6] was 66800 and the MFI [7] was 4960. The MFI [8] was 79000, the MFI [9] was 3640 and the MFI [16] was 2140. For the same binder, the binding result [10] was “no binding”, the Kd [19] was ~1 nM and the binding result [20] was “binds”. The MFI [11] was 29800, the MFI [12] was 2430 and the “fold-change over parental HEK293” value [13] was 13.8 fold. For the same binder, the “fold-change over parental HEK293” value [18] was 36 fold and the “fold-change over parental HEK293” value [14] was 34.9 fold.
